Each block holds one binder with its values, some of them ahead of it. Ends that are not written are not given here. Me3 = trimethyl group on lysine (trimethyl-lysine); Me2 = dimethyl group on lysine (dimethyl-lysine)
How the values were obtained:
Test in all cases: ITC
[1] = biological target: Spindlin1/C11orf84 complex (human, UniProt Q9Y657 50-262; Q9BUA3 1-381)
[2] = biological target: Spindlin1 Y91A/C11orf84 complex (human, UniProt Q9Y657 50-262; Q9BUA3 1-381, Y91A)
[3] = biological target: Spindlin1 W62A/C11orf84 complex (human, UniProt Q9Y657 50-262; Q9BUA3 1-381, W62A)
[4] = biological target: Spindlin1 W72A/C11orf84 complex (human, UniProt Q9Y657 50-262; Q9BUA3 1-381, W72A)
[5] = biological target: Spindlin1 D173A/C11orf84 complex (human, UniProt Q9Y657 50-262; Q9BUA3 1-381, D173A)
[6] = biological target: Spindlin1 F141A/C11orf84 complex (human, UniProt Q9Y657 50-262; Q9BUA3 1-381, F141A)
[7] = biological target: Spindlin1 W62A/W72A/C11orf84 complex (human, UniProt Q9Y657 50-262; Q9BUA3 1-381, W62A | W72A)
[8] = biological target: Spindlin1 Y98A/C11orf84 complex (human, UniProt Q9Y657 50-262; Q9BUA3 1-381, Y98A)
Sequence of Spindlin1 Y98A/C11orf84 complex (Q9Y657 50-262 Y98A, chain 1 of 2): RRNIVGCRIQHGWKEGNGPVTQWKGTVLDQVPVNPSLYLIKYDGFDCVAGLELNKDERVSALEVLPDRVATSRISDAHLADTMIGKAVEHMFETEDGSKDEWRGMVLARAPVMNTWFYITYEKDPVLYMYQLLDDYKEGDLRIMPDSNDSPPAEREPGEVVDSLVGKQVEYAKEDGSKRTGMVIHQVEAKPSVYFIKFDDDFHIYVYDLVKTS
Sequence of Spindlin1 Y98A/C11orf84 complex (Q9BUA3 whole entry, chain 2 of 2): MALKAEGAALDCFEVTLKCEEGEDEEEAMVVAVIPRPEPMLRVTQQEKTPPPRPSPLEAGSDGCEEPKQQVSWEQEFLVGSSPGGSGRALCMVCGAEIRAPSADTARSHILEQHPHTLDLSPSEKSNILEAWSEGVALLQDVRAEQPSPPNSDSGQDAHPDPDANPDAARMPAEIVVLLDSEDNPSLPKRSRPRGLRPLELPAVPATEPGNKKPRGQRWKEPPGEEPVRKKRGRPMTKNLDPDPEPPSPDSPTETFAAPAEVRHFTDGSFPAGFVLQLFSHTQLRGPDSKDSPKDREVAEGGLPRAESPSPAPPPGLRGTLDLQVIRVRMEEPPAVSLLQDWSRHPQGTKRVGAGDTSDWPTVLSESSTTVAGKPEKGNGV

Sequence of Spindlin1/C11orf84 complex (Q9Y657 50-262, chain 1 of 2): as the sequence (Q9Y657 50-262 Y98A, chain 1 of 2) above, with A49Y counted along it
Sequence of Spindlin1/C11orf84 complex (Q9BUA3 219-305, chain 2 of 2): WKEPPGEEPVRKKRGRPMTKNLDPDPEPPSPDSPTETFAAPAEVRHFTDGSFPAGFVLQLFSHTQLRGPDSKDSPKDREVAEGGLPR
Sequence of Spindlin1 D173A/C11orf84 complex (Q9Y657 50-262 D173A, chain 1 of 2): as the sequence (Q9Y657 50-262 Y98A, chain 1 of 2) above, with A49Y, D124A counted along it
Sequence of Spindlin1 D173A/C11orf84 complex (Q9BUA3 219-305, chain 2 of 2): as the sequence (Q9BUA3 219-305, chain 2 of 2) above
Sequence of Spindlin1 W72A/C11orf84 complex (Q9Y657 50-262 W72A, chain 1 of 2): as the sequence (Q9Y657 50-262 Y98A, chain 1 of 2) above, with W23A, A49Y counted along it
Sequence of Spindlin1 W72A/C11orf84 complex (Q9BUA3 whole entry, chain 2 of 2): as the sequence (Q9BUA3 whole entry, chain 2 of 2) above
Sequence of Spindlin1 F141A/C11orf84 complex (Q9Y657 50-262 F141A, chain 1 of 2): as the sequence (Q9Y657 50-262 Y98A, chain 1 of 2) above, with A49Y, F92A counted along it
Sequence of Spindlin1 F141A/C11orf84 complex (Q9BUA3 whole entry, chain 2 of 2): as the sequence (Q9BUA3 whole entry, chain 2 of 2) above
Sequence of Spindlin1 Y91A/C11orf84 complex (Q9Y657 50-262 Y91A, chain 1 of 2): as the sequence (Q9Y657 50-262 Y98A, chain 1 of 2) above, with Y42A, A49Y counted along it
Sequence of Spindlin1 Y91A/C11orf84 complex (Q9BUA3 whole entry, chain 2 of 2): as the sequence (Q9BUA3 whole entry, chain 2 of 2) above
Sequence of Spindlin1 W62A/W72A/C11orf84 complex (Q9Y657 50-262 W62A/W72A, chain 1 of 2): as the sequence (Q9Y657 50-262 Y98A, chain 1 of 2) above, with W13A, W23A, A49Y counted along it
Sequence of Spindlin1 W62A/W72A/C11orf84 complex (Q9BUA3 whole entry, chain 2 of 2): as the sequence (Q9BUA3 whole entry, chain 2 of 2) above
Sequence of Spindlin1 W62A/C11orf84 complex (Q9Y657 50-262 W62A, chain 1 of 2): as the sequence (Q9Y657 50-262 Y98A, chain 1 of 2) above, with W13A, A49Y counted along it
Sequence of Spindlin1 W62A/C11orf84 complex (Q9BUA3 whole entry, chain 2 of 2): as the sequence (Q9BUA3 whole entry, chain 2 of 2) above

Binder: ARTK(Me3)QTARKSTG [H3K4me3 peptide]
Kd [1]: 213 nM

Binder: ARTKQTARKSTG (K9me3) [H3K9me3 peptide]
Kd [1]: 2880 nM

Binder: ARTK(Me3)QTARK(Me3)STG [H3K4me3K9me3 peptide]
Kd [2]: 59 nM | Kd [3]: 71 nM | Kd [4]: 77 nM | Kd [5]: 57 nM | Kd [6]: 869 nM | Kd [7]: 199 nM | Kd [8]: 80 nM

The remaining binders from weak to strong by Kd [1], led by results:

Kd [1]: 82 nM
Binder: ARTK(Me3)QTAR(asymmetric Me2)KSTG [H3K4me3R8me2a peptide]

Kd [1]: 42 nM
Binder: ARTK(Me3)QTARK(Me2)STG [H3K4me3K9me2 peptide]
